Km data for 1 substance are collected here from ChEMBL document CHEMBL2074060, “MDR1 P-glycoprotein transports endogenous opioid peptides” (Peptides, 2001).

The series has as its system C[C@@H](NC(=O)[C@@H](N)Cc1ccc(O)cc1)C(=O)NCC(=O)N(C)[C@@H](Cc1ccccc1)C(=O)NCCO. Briefly: TP_TRANSPORTER: uptake in membrane vesicle from MDR1-expressing SW1573/S1 cell. It counts as functional, cell membranes.

Turning to “ATP-dependent translocase ABCB1 (Homo sapiens)”, the Michaelis-Menten constant (Km) (in general, the substrate concentration at which the rate is half of its maximum) stood at 43 µM.
